Target: T1, CD58 Full ECD (human, UniProt P19256 30-215)
T1 construct: Recombinant, made in HEK293 cells
T1 sequence: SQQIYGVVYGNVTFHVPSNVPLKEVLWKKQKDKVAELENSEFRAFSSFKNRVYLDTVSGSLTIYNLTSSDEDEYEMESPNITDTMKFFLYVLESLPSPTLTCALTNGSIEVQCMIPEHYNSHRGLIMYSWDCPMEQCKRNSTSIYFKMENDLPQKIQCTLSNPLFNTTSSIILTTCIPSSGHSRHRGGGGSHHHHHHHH
Experiment: isothermal titration calorimetry; 100 uM CD2 titrated into 10 uM CD58 variant in HBS
Procedure: To ensure the binding affinity remained uncompromised by the additional of the stabilizing disulfide variance, isothermal calorimetry (ITC) was performed on the resulting recombinant CD58 proteins to determine their apparent KD and binding stoicheometry (n) to recombinant human CD2.
Briefly, recombinant human CD2 and recombinant human CD58 variants were dialyzed into HEPES-buffered saline (HBS). CD2 was diluted to final concentration of 100 μM, CD58 variants were diluted to 10 μM. CD2 was titrated into 10 μM of CD58 variants via multiple injections and ΔH (kcal/mole) determined using a MicroCal VP-ITC isothermal titration calorimeter (Malvern). Titrations of CD2 into HBS were used as a reference and KD and n determined from the resulting data.

B1: Human CD2 (receptor)
chain: KEITNALETWGALGQDINLDIPSFQMSDDIDDIKWEKTSDKKKIAQFRKEKETFKEKDTYKLFKNGTLKIKHLKTDDQDIYKVSIYDTKGKNVLEKIFDLKIQERVSKPKISWTCINTTLTCEVMNGTDPELNLYQDGKHLKLSQRVITHKWTTSLSAKFKCTAGNKVSKESSVEPVSCPEKGLD
notes: also called recombinant human CD2; CD2 extracellular domain
Work on B1 yielded a Kd of 570 nM.

— patent US20220396631A1 (Novartis, published 2022)
